Numbering of substitutions follows the chain as printed. Numbers in names are those of the source. Where two headings read alike, the source gives them in different places.
Legend:
[1] = biological target: GMPCPP-stabilized microtubules of porcine brain tubulin (porcine) (UniProt P02550)
[2] = biological target: T1, katanin MEI-1/MEI-2 (wild type) (C. elegans) (UniProt P34808)
T1 sequence 1: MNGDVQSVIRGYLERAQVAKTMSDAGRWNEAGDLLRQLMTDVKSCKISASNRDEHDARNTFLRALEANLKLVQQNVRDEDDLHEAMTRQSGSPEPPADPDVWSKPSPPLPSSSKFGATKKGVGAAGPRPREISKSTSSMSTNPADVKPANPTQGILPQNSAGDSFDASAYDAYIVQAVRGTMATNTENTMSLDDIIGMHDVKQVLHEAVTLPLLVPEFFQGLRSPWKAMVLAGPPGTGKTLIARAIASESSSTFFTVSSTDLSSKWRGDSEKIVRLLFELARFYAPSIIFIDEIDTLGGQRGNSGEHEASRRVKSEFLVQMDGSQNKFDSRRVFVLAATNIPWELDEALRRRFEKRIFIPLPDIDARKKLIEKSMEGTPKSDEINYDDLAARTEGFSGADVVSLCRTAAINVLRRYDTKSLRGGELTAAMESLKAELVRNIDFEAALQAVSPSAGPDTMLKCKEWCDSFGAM
T1 sequence 2: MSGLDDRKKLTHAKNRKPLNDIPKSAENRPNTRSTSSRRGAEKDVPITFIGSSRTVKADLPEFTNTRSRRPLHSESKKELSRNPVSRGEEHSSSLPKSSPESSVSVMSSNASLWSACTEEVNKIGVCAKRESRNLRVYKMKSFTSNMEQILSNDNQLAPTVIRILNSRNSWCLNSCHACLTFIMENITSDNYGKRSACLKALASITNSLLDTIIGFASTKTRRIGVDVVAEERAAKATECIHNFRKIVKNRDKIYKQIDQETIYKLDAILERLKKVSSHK

[3] = biological target: T1, katanin MEI-1/MEI-2 (wild type) (C. elegans); remark: listed apart in the source
[4] = biological target: katanin MEI-1/MEI-2 mutant Glu308 to alanine (C. elegans) (UniProt P34808)
[5] = biological target: katanin MEI-1/MEI-2 mutant R267A (C. elegans) (UniProt P34808)
[6] = biological target: taxol-stabilized brain microtubules (UniProt P02550)
[7] = biological target: katanin MEI-1/MEI-2 mutant W266A (C. elegans) (UniProt P34808)
[8] = biological target: katanin MEI-1/MEI-2 mutant K265A (C. elegans) (UniProt P34808)
[9] = biological target: GMPCPP-stabilized microtubules of porcine brain tubulin (porcine) (UniProt P02550); remark: listed apart in the source
[10] = biological target: taxol-stabilized brain microtubules (UniProt P02550); remark: listed apart in the source

“Drosophila melanogaster spastin mutated in the N-terminal positively-charged cluster Arg110Lys111Lys117Arg118 (enzyme)” was tested, and the microtubule severing activity of spastin at 20 nM, reduction against wild type [1] was 50%.

“Drosophila melanogaster spastin with Arg159Arg160Arg166Arg172Arg174 mutated to alanine (enzyme)” showed a microtubule severing activity of spastin at 20 nM, reduction against wild type [1] of 70%.

With βV-tail (peptide) the stimulation of katanin ATPase by the tail, weaker than βI and βIVb by [2] was 30%.

Work on DATAEEEEDFGEEAEEEA [βI-tubulin tail peptide] yielded a maximal stimulation of katanin ATPase by the tail peptide (2 to 600 μM) [3] of 3.5 fold.

B1: katanin MEI-1/MEI-2 mutant Glu308 to alanine (complex)
chain 1: T1 sequence 1 with E308A
chain 2: T1 sequence 2
Molecule B1 has a basal ATPase, reduction against wild type [4] of 87%.

Molecule DATAEEEGEFEEEAEEEVA [βIVb-tubulin tail peptide] has a maximal stimulation of katanin ATPase by the tail peptide (2 to 600 μM) [3] of 3.5 fold.

B2: katanin MEI-1/MEI-2 mutant R267A (complex)
chain 1: T1 sequence 1 with R267A
chain 2: T1 sequence 2
For B2, the basal ATPase, reduction against wild type [5] was 51% and the microtubule stimulated ATPase, reduction against wild type [6] was 60%.

B3: katanin MEI-1/MEI-2 mutant W266A (complex)
chain 1: T1 sequence 1 with W266A
chain 2: T1 sequence 2
With B3 the microtubule stimulated ATPase, reduced (so in the source) [6] was 64% and the basal ATPase, reduced (so in the source) [7] was 59%.

B4: katanin MEI-1/MEI-2 mutant K265A (complex)
chain 1: T1 sequence 1 with K265A
chain 2: T1 sequence 2
Molecule B4 has a microtubule stimulated ATPase, reduced (so in the source) [6] of 58% and a basal ATPase, reduced (so in the source) [8] of 42%.

B5: katanin MEI-1/MEI-2 Arg128Arg130Lys134Ala triple mutant (complex)
chain 1: T1 sequence 1 with R128A, R130A, K134A
chain 2: T1 sequence 2
In the case of B5, the microtubule severing activity, reduction against wild type [9] is reported as 32% and the tubulin extraction (nanodamage) activity, reduction against wild type [9] is reported as 51%.

For VDSVEGEGEEEGEEY [α-tubulin tail peptide], the maximal stimulation of katanin ATPase by the tail peptide (2 to 600 μM) [3] was 2.2 fold.

B6: katanin MEI-1/MEI-2 mutant K119K120R128R130K134AAAAA (complex)
chain 1: T1 sequence 1 with K119A, K120A, R128A, R130A, K134A
chain 2: T1 sequence 2
B6 was tested, and the microtubule stimulated ATPase, reduction against wild type [10] was 50%.

From paper PMC7060837
